Laboratory results published in patent publication US20210246166A1 (Bayer, published 2021).
Bridge positions count the residues as written; N and C are the ends. Square brackets hold non-standard residues; d marks the D form. Primed or numbered codes have the meaning given here. Ends that are not written are not given here. * marks the point of attachment. Tranexamic″ = tranexamic acid, NC[C@H]1CC[C@@H](C(=O)*)CC1; Oic = O=C(O)[C@@H]1C[C@@H]2CCCC[C@@H]2N1; Cyclopropylacetic acid = O=C(CC1CC1)*; NMeI = CC[C@H](C)[C@H](NC)C(=O)O; aIle = CC[C@@H](C)[C@H](N)C(=O)O; tBuAla = CC(C)(C)C[C@H](N)C(=O)O; aThr = C[C@H](O)[C@H](N)C(=O)O; Chg = N[C@H](C(=O)O)C1CCCCC1; Pen = CC(C)(S)[C@H](N)C(=O)O; NMeC = CN[C@@H](CS)C(=O)O; Sar = CNCC(=O)O

What was measured:
[1] = target: T1, Recombinant human MASP1 enzyme (fragment corresponding to amino acids 297-699, C-terminal His Tag) (human, UniProt P48740 297-699); assay: cell-based or functional assay
T1 sequence: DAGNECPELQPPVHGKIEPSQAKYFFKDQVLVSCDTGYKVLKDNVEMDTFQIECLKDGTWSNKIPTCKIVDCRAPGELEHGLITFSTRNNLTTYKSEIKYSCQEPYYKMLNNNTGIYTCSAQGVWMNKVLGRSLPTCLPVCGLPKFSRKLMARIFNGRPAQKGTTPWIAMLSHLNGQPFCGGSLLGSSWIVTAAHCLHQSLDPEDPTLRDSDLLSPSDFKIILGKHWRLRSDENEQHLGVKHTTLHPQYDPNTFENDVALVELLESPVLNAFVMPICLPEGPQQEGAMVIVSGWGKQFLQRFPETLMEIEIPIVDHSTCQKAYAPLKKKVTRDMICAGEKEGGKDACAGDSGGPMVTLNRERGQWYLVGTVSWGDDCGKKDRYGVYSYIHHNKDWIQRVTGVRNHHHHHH

[2] = target: Recombinant human MASP2 enzyme (fragment corresponding to amino acids 297-686, C-terminal His Tag) (human, UniProt O00187 297-686); assay: cell-based or functional assay
Chain of Recombinant human MASP2 enzyme (fragment corresponding to amino acids 297-686, C-terminal His Tag) (O00187 other isoform, or with tags, fused parts or gaps limits assumed): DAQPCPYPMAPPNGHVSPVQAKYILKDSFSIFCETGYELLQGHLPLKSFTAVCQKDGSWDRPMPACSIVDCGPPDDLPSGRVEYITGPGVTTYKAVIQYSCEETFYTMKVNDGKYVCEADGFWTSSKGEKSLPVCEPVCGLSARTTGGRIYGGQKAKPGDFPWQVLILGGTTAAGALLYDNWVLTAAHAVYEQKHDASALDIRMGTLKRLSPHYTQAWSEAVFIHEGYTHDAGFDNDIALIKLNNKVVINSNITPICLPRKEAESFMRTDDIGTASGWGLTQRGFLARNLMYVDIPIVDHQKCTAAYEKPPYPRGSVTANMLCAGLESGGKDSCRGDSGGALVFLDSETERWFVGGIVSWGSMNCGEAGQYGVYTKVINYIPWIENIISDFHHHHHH

Row | Binder | human MASP1 IC50 [1] | human MASP2 IC50 [2]
1 | {Cyclopropylacetic acid}-ICSRS[tBuAla]PPI[NMeC]I-NH2 (disulfide 2-10; SMILES CC[C@H](C)[C@H](NC(=O)[C@@H]1CSSC[C@H](NC(=O)[C@@H](NC(=O)CC2CC2)[C@@H](C)CC)C(=O)N[C@@H](CO)C(=O)N[C@@H](CCCNC(=N)N)C(=O)N[C@@H](CO)C(=O)N[C@@H](CC(C)(C)C)C(=O)N2CCC[C@H]2C(=O)N2CCC[C@H]2C(=O)N[C@@H]([C@@H](C)CC)C(=O)N1C)C(N)=O) [(Cyclopropylacetic acid)-IC+SRS-((tBu)A)-PPI-((N-Me)C)+I-NH2] | 13 nM | 55 nM
2 | G[NMeI]CSRSLPPICIPD-OH (disulfide 3-11; N-terminus assumed; SMILES CC[C@H](C)[C@@H]1NC(=O)[C@@H]2CCCN2C(=O)[C@@H]2CCCN2C(=O)[C@H](CC(C)C)NC(=O)[C@H](CO)NC(=O)[C@H](CCCNC(=N)N)NC(=O)[C@H](CO)NC(=O)[C@@H](NC(=O)[C@H]([C@@H](C)CC)N(C)C(=O)CN)CSSC[C@@H](C(=O)N[C@H](C(=O)N2CCC[C@H]2C(=O)N[C@@H](CC(=O)O)C(=O)O)[C@@H](C)CC)NC1=O) [G-((N-Me)I)-C+SRSLPPIC+IPD-OH] | 14 nM | 1100 nM
3 | AICSR[aThr]LPPICIPD-NH2 (disulfide 3-11; N-terminus assumed; SMILES CC[C@H](C)[C@H](NC(=O)[C@H](C)N)C(=O)N[C@H]1CSSC[C@@H](C(=O)N[C@H](C(=O)N2CCC[C@H]2C(=O)N[C@@H](CC(=O)O)C(N)=O)[C@@H](C)CC)NC(=O)[C@H]([C@@H](C)CC)NC(=O)[C@@H]2CCCN2C(=O)[C@@H]2CCCN2C(=O)[C@H](CC(C)C)NC(=O)[C@H]([C@H](C)O)NC(=O)[C@H](CCCNC(=N)N)NC(=O)[C@H](CO)NC1=O) [AIC+SR-(allo-T)-LPPIC+IPD-NH2] | 14 nM | 330 nM
4 | G[NMeI]CSRSLPPICIP[dD]-OH (disulfide 3-11; N-terminus assumed; SMILES CC[C@H](C)[C@@H]1NC(=O)[C@@H]2CCCN2C(=O)[C@@H]2CCCN2C(=O)[C@H](CC(C)C)NC(=O)[C@H](CO)NC(=O)[C@H](CCCNC(=N)N)NC(=O)[C@H](CO)NC(=O)[C@@H](NC(=O)[C@H]([C@@H](C)CC)N(C)C(=O)CN)CSSC[C@@H](C(=O)N[C@H](C(=O)N2CCC[C@H]2C(=O)N[C@H](CC(=O)O)C(=O)O)[C@@H](C)CC)NC1=O) [G-((N-Me)I)-C+SRSLPPIC+IPd-OH] | 14 nM | 1300 nM
5 | Ac-ICSRS[tBuAla]PPI[NMeC]I-NH2 (disulfide 2-10; SMILES CC[C@H](C)[C@H](NC(=O)[C@@H]1CSSC[C@H](NC(=O)[C@@H](NC(C)=O)[C@@H](C)CC)C(=O)N[C@@H](CO)C(=O)N[C@@H](CCCNC(=N)N)C(=O)N[C@@H](CO)C(=O)N[C@@H](CC(C)(C)C)C(=O)N2CCC[C@H]2C(=O)N2CCC[C@H]2C(=O)N[C@@H]([C@@H](C)CC)C(=O)N1C)C(N)=O) [Ac-IC+SRS-((tBu)A)-PPI-((N-Me)C)+I-NH2] | 14 nM | 61 nM
6 | [Sar]ICSRSLPPICIPD-OH (disulfide 3-11; N-terminus assumed; SMILES CC[C@H](C)[C@H](NC(=O)CNC)C(=O)N[C@H]1CSSC[C@@H](C(=O)N[C@H](C(=O)N2CCC[C@H]2C(=O)N[C@@H](CC(=O)O)C(=O)O)[C@@H](C)CC)NC(=O)[C@H]([C@@H](C)CC)NC(=O)[C@@H]2CCCN2C(=O)[C@@H]2CCCN2C(=O)[C@H](CC(C)C)NC(=O)[C@H](CO)NC(=O)[C@H](CCCNC(=N)N)NC(=O)[C@H](CO)NC1=O) [((N-Me)G)-IC+SRSLPPIC+IPD-OH] | 15 nM | 535 nM
7 | [Sar]ICSRSLPPIC[aIle]PD-NH2 (disulfide 3-11; N-terminus assumed; SMILES CC[C@@H](C)[C@H](NC(=O)[C@@H]1CSSC[C@H](NC(=O)[C@@H](NC(=O)CNC)[C@@H](C)CC)C(=O)N[C@@H](CO)C(=O)N[C@@H](CCCNC(=N)N)C(=O)N[C@@H](CO)C(=O)N[C@@H](CC(C)C)C(=O)N2CCC[C@H]2C(=O)N2CCC[C@H]2C(=O)N[C@@H]([C@@H](C)CC)C(=O)N1)C(=O)N1CCC[C@H]1C(=O)N[C@@H](CC(=O)O)C(N)=O) [((N-Me)G)-IC+SRSLPPIC+(allo-I)-PD-NH2] | 14 nM | 170 nM
8 | AICSRSLP[Oic][Chg]CIPD-NH2 (disulfide 3-11; N-terminus assumed; SMILES CC[C@H](C)[C@H](NC(=O)[C@H](C)N)C(=O)N[C@H]1CSSC[C@@H](C(=O)N[C@H](C(=O)N2CCC[C@H]2C(=O)N[C@@H](CC(=O)O)C(N)=O)[C@@H](C)CC)NC(=O)[C@H](C2CCCCC2)NC(=O)[C@@H]2C[C@@H]3CCCC[C@@H]3N2C(=O)[C@@H]2CCCN2C(=O)[C@H](CC(C)C)NC(=O)[C@H](CO)NC(=O)[C@H](CCCNC(=N)N)NC(=O)[C@H](CO)NC1=O) [AIC+SRSLP-(Oic)-(Chg)-C+IPD-NH2] | 12 nM | 290 nM
9 | [Sar]ICSRSLPP[Chg]CIPD-NH2 (disulfide 3-11; N-terminus assumed; SMILES CC[C@H](C)[C@H](NC(=O)CNC)C(=O)N[C@H]1CSSC[C@@H](C(=O)N[C@H](C(=O)N2CCC[C@H]2C(=O)N[C@@H](CC(=O)O)C(N)=O)[C@@H](C)CC)NC(=O)[C@H](C2CCCCC2)NC(=O)[C@@H]2CCCN2C(=O)[C@@H]2CCCN2C(=O)[C@H](CC(C)C)NC(=O)[C@H](CO)NC(=O)[C@H](CCCNC(=N)N)NC(=O)[C@H](CO)NC1=O) [((N-Me)G)-IC+SRSLPP-(Chg)-C+IPD-NH2] | 15 nM | 891 nM
10 | {Tranexamic″}-ICSRS[tBuAla]PPI[Pen]IP-NH2 (disulfide 2-10; SMILES CC[C@H](C)[C@@H]1NC(=O)[C@@H]2CCCN2C(=O)[C@@H]2CCCN2C(=O)[C@H](CC(C)(C)C)NC(=O)[C@H](CO)NC(=O)[C@H](CCCNC(=N)N)NC(=O)[C@H](CO)NC(=O)[C@@H](NC(=O)[C@@H](NC(=O)[C@H]2CC[C@@H](CN)CC2)[C@@H](C)CC)CSSC(C)(C)[C@@H](C(=O)N[C@H](C(=O)N2CCC[C@H]2C(N)=O)[C@@H](C)CC)NC1=O) [(Tranexamic)-IC+SRS-((tBu)A)-PPI-(Pen)+IP-NH2] | 12 nM | 17 nM
11 | AICSRS[3‑(Trimethylsilyl)‑L‑alanine]P[Oic]I[NMeC]IPD-NH2 (disulfide 3-11) [AIC+SRS-(3-(Trimethylsilyl)-L-alanine)-P-(Oic)-I-((N-Me)C)+IPD-NH2] | 14 nM | 1100 nM
